In paper PMC7588443 (Nature Communications, 2020):
Where a SMILES comes first, the peptide text is derived from it.

Tests used:
BBRF2Δ = target: T1, BBRF2Δ (Epstein-Barr virus, UniProt P29882); assay: biochemical; type: binding, human herpesvirus 4 strain M81
T1 construct: The cDNAs for full-length BBRF2 and BBRF2_17–278 were cloned into a modified pET28 vector (pSKB); made in house; host or cells: E. coli Rosetta (DE3)
Method: (§1) The biolayer interferometry (BLI) assay was performed using an eight-channel OctetRED biolayer interferometry system (FortéBio).
(§2) All experiments were carried out at 25 °C. Each measurement involved an 120 s baseline (with reaction buffer), followed by a 180 s (with protein or peptide) association phase, and a 180 s dissociation phase (with reaction buffer). Raw data were processed using Octet Data Analysis software 11.0 provided by Fortebio to derive the dissociation constant (KD). The results were presented in a graph using Origin (version 2019, OriginLab).

[1] = SEC-RALS, oligomeric state in solution; type: physicochemical; conditions: Superdex 75 or 200, 20 mM HEPES pH 7.0, 600 mM NaCl, 10% glycerol, 1 mM DTT
Method: (§3) The entire experiment was performed in buffer C. The RALS data were analyzed by OMNISEC software.

BSRF1Δ = assay: SEC analysis, BBRF2Δ mutants with BSRF1Δ; type: binding, human herpesvirus 4 strain M81; conditions: Superdex 75, 25 μM each, overnight at 4 °C, buffer C pH 7.0
Method: as §3

BBRF2Δ(F209K) = assay: Biolayer interferometry (BLI) on BBRF2Δ(F209K); type: binding, human herpesvirus 4 strain M81; conditions: compared to wild-type, pH 7.0, 25 °C
Method: as §1, §2

[2] = Solubility of recombinant BSRF1 constructs; type: physicochemical; conditions: recombinant protein
BBRF2Δ (BBRF2 17-278) [3] = target: T2, BBRF2Δ (BBRF2 17-278) (Epstein-Barr virus (human herpesvirus 4 …, UniProt P29882 17-278)); assay: SEC; conditions: both partners purified
T2 construct: source: E. coli Rosetta (DE3), purified (Ni-NTA, SEC)
T2 sequence: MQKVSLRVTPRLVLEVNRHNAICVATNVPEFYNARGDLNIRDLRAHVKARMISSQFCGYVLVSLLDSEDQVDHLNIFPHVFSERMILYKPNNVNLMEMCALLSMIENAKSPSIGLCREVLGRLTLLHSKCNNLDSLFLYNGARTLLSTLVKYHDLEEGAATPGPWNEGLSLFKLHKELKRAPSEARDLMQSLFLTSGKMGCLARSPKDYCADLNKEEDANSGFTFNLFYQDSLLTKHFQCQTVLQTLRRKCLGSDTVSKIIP

His6-tagged BBRF2Δ = target: T3, His6-tagged BBRF2Δ (Epstein-Barr virus (human herpesvirus 4 …, UniProt P29882 17-278)); assay: BLI; conditions: both partners purified
T3 construct: also called His-tagged BBRF2Δ; source: E. coli Rosetta (DE3), purified; not shown: His6, N-terminal, kept
T3 sequence: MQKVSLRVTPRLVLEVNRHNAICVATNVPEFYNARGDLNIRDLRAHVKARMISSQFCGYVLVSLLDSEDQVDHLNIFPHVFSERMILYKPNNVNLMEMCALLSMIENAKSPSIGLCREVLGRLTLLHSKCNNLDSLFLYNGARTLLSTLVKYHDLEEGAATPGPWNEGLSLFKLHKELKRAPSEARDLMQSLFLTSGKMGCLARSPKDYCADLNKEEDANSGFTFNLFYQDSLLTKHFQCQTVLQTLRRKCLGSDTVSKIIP

[4] = 6 μM protein, 3 mM liposomes (Golgi, ER, plasma membrane mixes), 60 min, room temperature; alone or complexed with full-length BBRF2
BBRF2Δ (BBRF2 17-278) [5] = target: T2, BBRF2Δ (BBRF2 17-278); assay: SEC-RALS; Superdex 75 or Superdex 200 Increase 10/300 GL; 25 μM of each purified protein mixed and incubated overnight at 4 °C; buffer C (20 mM HEPES pH 7.0, 600 mM NaCl, 10% glycerol, 1 mM DTT); conditions: both partners purified
[6] = target: the molecule itself; assay: as above
[7] = target: T4, His6-tagged BBRF2Δ (Epstein-Barr virus (human herpesvirus 4 strain M81)), P29882; assay: BLI
T4 chain: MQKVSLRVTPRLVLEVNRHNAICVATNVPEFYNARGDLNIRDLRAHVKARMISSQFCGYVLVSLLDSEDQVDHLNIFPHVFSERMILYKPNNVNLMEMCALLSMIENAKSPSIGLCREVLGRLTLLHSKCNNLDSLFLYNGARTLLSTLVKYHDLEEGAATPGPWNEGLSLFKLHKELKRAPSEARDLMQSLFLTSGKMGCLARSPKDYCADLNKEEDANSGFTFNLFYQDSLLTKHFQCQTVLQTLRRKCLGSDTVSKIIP

Molecule: CC[C@H](C)[C@H](NC(=O)[C@H](CO)NC(=O)[C@H](CC(N)=O)NC(=O)[C@H](C)NC(=O)[C@H](CCC(N)=O)NC(=O)[C@@H](NC(=O)[C@H](C)NC(=O)[C@H](CC(C)C)NC(=O)[C@H](CC(C)C)NC(=O)[C@H](Cc1ccc(O)cc1)NC(=O)[C@@H](NC(=O)[C@H](CCC(N)=O)NC(=O)[C@H](CCCNC(=N)N)NC(=O)[C@H](CC(C)C)NC(=O)[C@H](CO)NC(=O)CNC(=O)[C@H](CCSC)NC(=O)[C@@H](NC(=O)[C@H](CCC(N)=O)NC(=O)[C@H](CCC(=O)O)NC(=O)[C@H](CC(N)=O)NC(=O)[C@H](CCCNC(=N)N)NC(=O)[C@H](CC(C)C)NC(=O)[C@H](CC(C)C)NC(=O)[C@H](CC(=O)O)NC(=O)CNC(=O)[C@@H](NC(=O)[C@H](CCC(N)=O)NC(=O)[C@@H](NC(=O)CNC(=O)[C@@H]1CCCN1C(=O)[C@@H]1CCCN1C(=O)[C@H](CC(C)C)NC(=O)CNC(=O)[C@H](CC(C)C)NC(=O)[C@@H](N)CC(=O)O)C(C)C)C(C)C)[C@@H](C)O)C(C)C)C(C)C)C(=O)N[C@H](C(=O)N[C@@H](CC(=O)O)C(=O)O)[C@@H](C)O [P1] (H-DLGLPPGVQVGDLLRNEQTMGSLRQVYLLAVQANSITD-OH)
- Kd (BBRF2Δ): 7.43 µM

B1: BBRF2Δ: N-terminally truncated version with deletion of residues 1−16 (protein)
chain: MQKVSLRVTPRLVLEVNRHNAICVATNVPEFYNARGDLNIRDLRAHVKARMISSQFCGYVLVSLLDSEDQVDHLNIFPHVFSERMILYKPNNVNLMEMCALLSMIENAKSPSIGLCREVLGRLTLLHSKCNNLDSLFLYNGARTLLSTLVKYHDLEEGAATPGPWNEGLSLFKLHKELKRAPSEARDLMQSLFLTSGKMGCLARSPKDYCADLNKEEDANSGFTFNLFYQDSLLTKHFQCQTVLQTLRRKCLGSDTVSKIIP
- oligomeric state in solution [1]: monomeric both in solution and in the asymmetric unit of the crystal

B2: BBRF2Δ(M205K): BBRF2Δ with Met205 mutated to lysine (protein)
chain: MQKVSLRVTPRLVLEVNRHNAICVATNVPEFYNARGDLNIRDLRAHVKARMISSQFCGYVLVSLLDSEDQVDHLNIFPHVFSERMILYKPNNVNLMEMCALLSMIENAKSPSIGLCREVLGRLTLLHSKCNNLDSLFLYNGARTLLSTLVKYHDLEEGAATPGPWNEGLSLFKLHKELKRAPSEARDLKQSLFLTSGKMGCLARSPKDYCADLNKEEDANSGFTFNLFYQDSLLTKHFQCQTVLQTLRRKCLGSDTVSKIIP
- complex formation with BSRF1Δ (BSRF1Δ): did not form a complex with BSRF1Δ

B3: BBRF2Δ(F209K): BBRF2Δ with Phe209 mutated to lysine (protein)
chain: MQKVSLRVTPRLVLEVNRHNAICVATNVPEFYNARGDLNIRDLRAHVKARMISSQFCGYVLVSLLDSEDQVDHLNIFPHVFSERMILYKPNNVNLMEMCALLSMIENAKSPSIGLCREVLGRLTLLHSKCNNLDSLFLYNGARTLLSTLVKYHDLEEGAATPGPWNEGLSLFKLHKELKRAPSEARDLMQSLKLTSGKMGCLARSPKDYCADLNKEEDANSGFTFNLFYQDSLLTKHFQCQTVLQTLRRKCLGSDTVSKIIP
- binding affinity of BBRF2Δ(F209K) with BSRF1Δ, in words (BBRF2Δ(F209K)): moderately reduced binding affinity
- complex formation with BSRF1Δ (BSRF1Δ): maintained the binding for BSRF1Δ

B4: BSRF1: Full-length BSRF1 (residues 1–218), EBV tegument protein (protein)
chain: MAFYLPDWSCCGLWLFGRPRNRYSQLPEEPETFECPDRWRAEIDLGLPPGVQVGDLLRNEQTMGSLRQVYLLAVQANSITDHLKRFDAVRVPESCRGVVEAQVAKLEAVRSVIWNTMISLAVSGIEMDENGLKALLDKQAGDSLALMEMEKVATALKMDETGAWAQEISAVVSSVTAPSASAPFINSAFEPEVPTPVLAPPPVVRQPEHSGPTELALT
modifications: left off: Flag, end not stated, kept
notes: Full-length BSRF1 (residues 1–218), EBV tegument protein
- solubility [2]: insoluble

B5: BSRF1Δ with Cys95 mutated to serine (domain or fragment)
chain: ECPDRWRAEIDLGLPPGVQVGDLLRNEQTMGSLRQVYLLAVQANSITDHLKRFDAVRVPESSRGVVEAQVAKLEAVRSVIWNTMISLAVSGIEMDENGLKALLDKQAGDSLALMEMEKVATALKMD
notes: also called BSRF1Δ(C95S); source: E. coli, purified
- binding result (BBRF2Δ (BBRF2 17-278) [3]): binds

B6: BSRF1Δ(N59K) (domain or fragment)
chain: ECPDRWRAEIDLGLPPGVQVGDLLRKEQTMGSLRQVYLLAVQANSITDHLKRFDAVRVPESCRGVVEAQVAKLEAVRSVIWNTMISLAVSGIEMDENGLKALLDKQAGDSLALMEMEKVATALKMD
notes: source: E. coli, purified
- binding result (BBRF2Δ (BBRF2 17-278) [3]): binds
- binding result (His6-tagged BBRF2Δ): binds

B7: BSRF1Δ(M63D) (domain or fragment)
chain: ECPDRWRAEIDLGLPPGVQVGDLLRNEQTDGSLRQVYLLAVQANSITDHLKRFDAVRVPESCRGVVEAQVAKLEAVRSVIWNTMISLAVSGIEMDENGLKALLDKQAGDSLALMEMEKVATALKMD
notes: source: E. coli, purified
- binding result (BBRF2Δ (BBRF2 17-278) [3]): binds
- binding result (His6-tagged BBRF2Δ): binds

B8: BSRF1_(20-218) (domain or fragment)
chain: RNRYSQLPEEPETFECPDRWRAEIDLGLPPGVQVGDLLRNEQTMGSLRQVYLLAVQANSITDHLKRFDAVRVPESCRGVVEAQVAKLEAVRSVIWNTMISLAVSGIEMDENGLKALLDKQAGDSLALMEMEKVATALKMDETGAWAQEISAVVSSVTAPSASAPFINSAFEPEVPTPVLAPPPVVRQPEHSGPTELALT
notes: also called near-full-length BSRF1; source: E. coli, purified (as the BBRF2 constructs, 300 mM NaCl, no glycerol)
- membrane binding [4]: did not exhibit a strong tendency for membrane binding
- oligomeric state in solution [1]: dimerized in solution
- stoichiometry N (BBRF2Δ (BBRF2 17-278) [5]): 1
- stoichiometry N [6]: 2

Molecule: DLGLPPGVQVGDLLRNEQTMGSLRQVYLLAVQANSITD (modifications not checked) [BSRF1-derived peptide 1]
- Kd [7]: 7.4 µM

B9: BBRF2: EBV tegument protein, full-length (protein)
chain: MASGKHHQPGGTRSLTMQKVSLRVTPRLVLEVNRHNAICVATNVPEFYNARGDLNIRDLRAHVKARMISSQFCGYVLVSLLDSEDQVDHLNIFPHVFSERMILYKPNNVNLMEMCALLSMIENAKSPSIGLCREVLGRLTLLHSKCNNLDSLFLYNGARTLLSTLVKYHDLEEGAATPGPWNEGLSLFKLHKELKRAPSEARDLMQSLFLTSGKMGCLARSPKDYCADLNKEEDANSGFTFNLFYQDSLLTKHFQCQTVLQTLRRKCLGSDTVSKIIP
- oligomeric state in solution [1]: monomer in solution
